Measurements taken from patent US20250188133A1, “CHIMERIC BACTERIOCINS AND METHOD FOR THE CONTROL OF PSEUDOMONAS” (priority 2022, published 2025).

Key:
[1] = tested on: P. aeruginosa PAO1; test: MIC by agar dilution method; type: cell-based; details: against PAO1; CAA agar with 0.1 mg/ml BSA
Experimental: (§1) Aliquots of melted CAA (1.5% agar) medium (final volume—25 ml) pre-wormed to 51° C. were supplemented with 0.1 mg/ml BSA and with appropriate amounts of pyocin stock solutions of different concentrations (concentrations lowered by a factor of 2). Aliquots were poured into Petri plates. P. aeruginosa cultures were grown from single colony in CAA medium at 37° C., 200 rpm until OD595=0.2 and diluted to 10^7 CFU/ml in CAA medium. 1 μL of bacteria suspension were applied in three replicates on each test plate. Plates were left to incubate in 37° C. overnight. The determined MIC is a concentration of pyocin, where no confluent bacterial growth is observed.

[2] = tested on: P. aeruginosa ATCC 19660; test: MIC by agar dilution method; type: cell-based; details: against ATCC 19660; CAA agar with 0.1 mg/ml BSA
Experimental: as §1

[3] = tested on: P. aeruginosa strains; test: agar disc-diffusion assay, panel of 25 strains; type: cell-based
Method in brief: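 Read-out: bacteriocin inhibition zones after overnight incubation at 37° C. Lawns came from CAA cultures set to OD595=1.0 and diluted 100×, swabbed on 1.5% CAA agar; discs of 6 mm received 0.3-30 μg chimeric pyocin.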

[4] = tested on: P. aeruginosa ATCC 27853; test: murine lung colonization and treatment (CD1 mice); type: in vivo; details: 5 h post infection
Experimental: CD1 male mice were supplied by Charles River (Margate, UK) and were specific pathogen free. Mice were 11 to 15 g on receipt at the facility and were allowed to acclimatize for at least 7 days.
P. aeruginosa ATCC 27853 was recovered from long-term storage (−80° C.) and cultured on cystine-lactose-electrolyte-deficient (CLED) agar at 37° C. under aerobic conditions for approximately 16-24 h. 20 ml of Mueller Hinton broth was inoculated with a single well isolated colony and cultured overnight at 37° C. with shaking at 300 rpm65. The overnight broth was diluted 1:100 in Mueller Hinton broth and 100 ml was cultured in a baffle flask for ˜6 h at 37° C. with shaking at 300 rpm until the broth OD was ˜0.6 (˜mid-exponential phase). 20 ml of culture was centrifuged at 2465 g for 10 minutes and washed in PBS. The pellet was suspended in PBS and the OD600 adjusted to 0.67 (˜2.6×10^8 CFU/ml). The study inoculum was prepared from this by appropriate dilution with PBS. The inoculum concentration was confirmed by quantitative culture on Pseudomonas Selective Agar (PSA). The inoculum concentration for the study was 1.47×10^7 CFU/ml (5.87×10^5 CFU/mouse).
Mice were infected under temporary inhaled 3% isoflurane anesthesia by intranasal (IN) instillation with 40 μl of the inoculum suspension split as 20 μl/nostril.
1 hour post infection 6 mice were sacrificed in order to evaluate the pre-treatment burden in lungs. Treatments were administered IN once at 1 h post infection (50 μl split to 25 μl/nares). Three treatment groups consisting of six mice each were administered S5-PmnH (2.5, 25 and 250 μg). The fourth group of mice (n=6) was administered 200 μg Tobramycin (40 mg/ml injection solution, Hospira UK Ltd, diluted 10 times). The study was terminated at 5 hours post infection for all animals. The clinical conditions and weights were assessed and animals were immediately euthanized using an overdose of pentobarbitone. Following confirmation of death, the lungs were excised and homogenized in ice cold sterile phosphate buffered saline using a Precellys bead beater. The homogenates were quantitatively cultured onto PSA agar and incubated at 37° C. for 24 hours before colonies were counted.

B1: S5-PmnH (protein)
chain: MSNDNEVPGSMVIVAQGPDDQYAYEVPPIDSAAVAGNMFGDLIQREIYLQKNIYYPVRSIFEQGTKEKKEINKKVSDQVDGLLKQITQGKREATRQERVDVMSAVLHKMESDLEGYKKTFTKGPFIDYEKQSSLSIYEAWVKIWEKNSWEERKKYPFQQLVRDELERAVAYYKQDSLSEAVKVLRQELNKQKALKEKEDLSQLERDYRTRKANLEMKVQSELDQAGSALPPLVSPTPEQWLERATRLVTQAIADKKQLQTTNNTLIKNSPTPLEKQKAIYNGELLVDEIASLQARLVKLNAETTRRRTEKELTPDEKAAYTDAVSFVSTANEQMLQKYGANLSKVAQDMQAEIAGKKVRSYAEAMATFEKISANPAMKLNALDTQAVVDALNALDKASFADNITRLGKAFGVVGKVVQAEAIREKTVSGFQTGDWKPLMLELEAMAVGTGAGILLATSMAFFFPVFASAAAGVVVVALMMAATAAYFDAAKVDEINNLILN
modifications: Chimeric S5-PmnH
[1]
  MIC determined by agar dilution method: 4 µg/mL
[2]
  MIC determined by agar dilution method: 32 µg/mL
[3]; clinical isolates HP6 and HP7, S5 gave turbid zones with 3 μg and 30 μg
  inhibition on lawns of S5 producer strains HP6 and HP7: significantly larger and clearer than those formed by S5
[3]; panel of 25 P. aeruginosa strains, in words
  activity spectrum / profile in agar disc diffusion assay: broadened activity spectrum in comparison to pyocin S5
[3]; six pyocin S5 and immunity gene-positive strains (PA14, PAO1, HP6, HP7, ATCC 19660, NCTC 13921)
  inhibition zones on lawns of S5-producing strains: formed inhibition zones on the lawns of all six S5-producing strains
[4]; 2.5 μg/mouse IN once 1 h post infection
  reduction of lung burden vs vehicle: 2.1 log10 CFU/g
[4]; 2.5 μg/mouse IN once
  reduction of burden below the level of stasis (pre-treatment): 0.58 log10 CFU/g
[4]; 25 μg/mouse IN once 1 h post infection
  reduction of lung burden vs vehicle: 2.31 log10 CFU/g
[4]; 25 μg/mouse IN once
  reduction of burden below the level of stasis (pre-treatment): 0.78 log10 CFU/g
[4]; 250 μg/mouse IN once 1 h post infection
  reduction of lung burden vs vehicle: 2.66 log10 CFU/g
[4]; 250 μg/mouse IN once
  reduction of burden below the level of stasis (pre-treatment): 1.13 log10 CFU/g
